The values below come from publication PMC10979024 (Nature Communications, 2024).

One data set has as its target T1, DvCODH (Nitratidesulfovibrio vulgaris, UniProt Q72A99).
T1 construct: gene cooS
The format is biochemical. The settings on record: CO-saturated 50 mM HEPES/NaOH pH 8, 2 mM DTE, 20 mM viologen, 30 °C.

Data set [1] deals with the molecule itself. The experiment in a line: SEC; size exclusion chromatography of the purified enzyme; measured molecular mass compared with the theoretical mass of the dimer. (Size exclusion chromatography separates by hydrodynamic size, large species first.)

T1 sequence (Q72A99 1-629): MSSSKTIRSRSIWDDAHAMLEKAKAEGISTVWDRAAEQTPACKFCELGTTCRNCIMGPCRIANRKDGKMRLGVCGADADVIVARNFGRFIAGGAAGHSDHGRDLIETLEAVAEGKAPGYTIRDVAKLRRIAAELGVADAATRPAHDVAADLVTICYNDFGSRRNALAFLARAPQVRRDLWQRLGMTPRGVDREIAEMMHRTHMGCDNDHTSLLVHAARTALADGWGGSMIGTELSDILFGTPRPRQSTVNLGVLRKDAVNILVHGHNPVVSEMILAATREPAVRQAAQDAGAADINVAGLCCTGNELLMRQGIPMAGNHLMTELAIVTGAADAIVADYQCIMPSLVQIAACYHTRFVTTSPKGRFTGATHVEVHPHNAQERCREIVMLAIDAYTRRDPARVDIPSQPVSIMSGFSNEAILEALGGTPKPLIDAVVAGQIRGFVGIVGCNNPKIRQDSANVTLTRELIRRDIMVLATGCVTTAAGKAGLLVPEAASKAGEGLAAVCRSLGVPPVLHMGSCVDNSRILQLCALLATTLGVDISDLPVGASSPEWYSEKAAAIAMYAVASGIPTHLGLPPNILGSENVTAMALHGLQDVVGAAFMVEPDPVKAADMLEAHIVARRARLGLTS

For `C[n+]1ccc(-c2cc[n+](C)cc2)cc1` [MV, methyl viologen], the “CO-dependent viologen reduction, relative activity” value at DvCODH is “essential for viologen reduction using the four mediators MV, EV, BV, and diquat (DQ)”.

B1: ChCODH2 F41A (enzyme, Carboxydothermus hydrogenoformans)
chain: MAKQNLKSTDRAVQQMLDKAKREGIQTVWDRYEAMKPQCGAGETGLCCRHCLQGPCRINPFGDEPKVGICGATAEVIVARGLDRSIAAGAAGHSGHAKHLAHTLKKAVQGKAASYMIKDRTKLHSIAKRLGIPTEGQKDEDIALEVAKAALADFHEKDTPVLWVTTVLPPSRVKVLSAHGLIPAGIDHEIAEIMHRTSMGCDADAQNLLLGGLRCSLADLAGCYMGTDLADILFGTPAPVVTESNLGVLKADAVNVAVHGHNPVLSDIIVSVSKEMENEARAAGATGINVVGICCTGNEVLMRHGIPACTHSVSQEMAMITGALDAMILDYQCIQPSVATIAECTGTTVITTMEMSKITGATHVNFAEEAAVENAKQILRLAIDTFKRRKGKPVEIPNIKTKVVAGFSTEAIINALSKLNANDPLKPLIDNVVNGNIRGVCLFAGCNNVKVPQDQNFTTIARKLLKQNVLVVATGCGAGALMRHGFMDPANVDELCGDGLKAVLTAIGEANGLGGPLPPVLHMGSCVDNSRAVALVAALANRLGVDLDRLPVVASAAEAMHEKAVAIGTWAVTIGLPTHIGVLPPITGSLPVTQILTSSVKDITGGYFIVELDPETAADKLLAAINERRAGLGLPW
notes: Ni-Fe carbon monoxide dehydrogenase 2 (ChCODH2), Carboxydothermus hydrogenoformans, locus Chy_0085; site-directed variant in pET28a; source: E. coli BL21(DE3) with pRKISC, purified (Ni-NTA; size-exclusion chromatography)
As to B1, the “stoichiometry N” value in data set [1] was 2.

B2: ChCODH2 wild type (carbon monoxide dehydrogenase 2 of Carboxydothermus hydrogenoformans) (enzyme)
chain: MAKQNLKSTDRAVQQMLDKAKREGIQTVWDRYEAMKPQCGFGETGLCCRHCLQGPCRINPFGDEPKVGICGATAEVIVARGLDRSIAAGAAGHSGHAKHLAHTLKKAVQGKAASYMIKDRTKLHSIAKRLGIPTEGQKDEDIALEVAKAALADFHEKDTPVLWVTTVLPPSRVKVLSAHGLIPAGIDHEIAEIMHRTSMGCDADAQNLLLGGLRCSLADLAGCYMGTDLADILFGTPAPVVTESNLGVLKADAVNVAVHGHNPVLSDIIVSVSKEMENEARAAGATGINVVGICCTGNEVLMRHGIPACTHSVSQEMAMITGALDAMILDYQCIQPSVATIAECTGTTVITTMEMSKITGATHVNFAEEAAVENAKQILRLAIDTFKRRKGKPVEIPNIKTKVVAGFSTEAIINALSKLNANDPLKPLIDNVVNGNIRGVCLFAGCNNVKVPQDQNFTTIARKLLKQNVLVVATGCGAGALMRHGFMDPANVDELCGDGLKAVLTAIGEANGLGGPLPPVLHMGSCVDNSRAVALVAALANRLGVDLDRLPVVASAAEAMHEKAVAIGTWAVTIGLPTHIGVLPPITGSLPVTQILTSSVKDITGGYFIVELDPETAADKLLAAINERRAGLGLPW
notes: Ni-Fe carbon monoxide dehydrogenase 2 (ChCODH2), Carboxydothermus hydrogenoformans, locus Chy_0085; synthesized DNA in pET28a; Carries Fe-S and Ni-Fe clusters (B, C, D); also called ChCODH2 WT; WT; source: E. coli BL21(DE3) with pRKISC, purified (Ni-NTA; size-exclusion chromatography)
In the case of B2, the binding result in data set [1] is recorded as “binds”.

Usually stoichiometry N stands for a count of units in the complex or per binding partner.
